Columns and labels:
HeLa Kyoto [1] = experiment: solubility in G1/S (NP-40 vs SDS abundance) (log2 ratio); higher = more soluble; conditions: cell cycle stage: G1/S
HeLa Kyoto [2] = experiment: melting temperature (median over replicates), in situ; higher = more thermally stable
HeLa Kyoto [3] = experiment: solubility change mitosis vs G1/S (difference of NP-40 vs SDS log2 ratios) (log2 ratio difference); higher = more soluble in mitosis
HeLa Kyoto [4] = experiment: thermal stability score vs G1/S (z-score of summed log2 fold changes over temperatures); higher = more thermally stable than in G1/S
[5] = cell cycle stage: early G1 (4.5 h after nocodazole release)
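For melting temperature (median over replicates), in situ in this document: HeLa Kyoto cells synchronized by double thymidine or nocodazole block, proteins quantified by TMT10plex mass spectrometry, three independent biological replicates.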
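For solubility change mitosis vs G1/S (difference of NP-40 vs SDS log2 ratios) in this document: synchronized HeLa Kyoto cells (double thymidine block for G1/S, nocodazole release for mitosis), protein amounts in NP-40 versus SDS lysates quantified by mass spectrometry, three biological replicates.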
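For solubility in G1/S (NP-40 vs SDS abundance) in this document: HeLa Kyoto cells arrested at G1/S by double thymidine block, proteins quantified by TMT10plex mass spectrometry in mild NP-40 versus SDS extracts, three biological replicates.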
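For thermal stability score vs G1/S (z-score of summed log2 fold changes over temperatures) in this document: synchronized HeLa Kyoto cells, proteins quantified by TMT10plex mass spectrometry, three biological replicates, mitosis taken 0.5 h after nocodazole release, G1/S directly after double thymidine block.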

Sequence	solubility in G1/S (log2) (HeLa Kyoto [1])	melting temperature (HeLa Kyoto [2]; cell cycle stage: G1/S)	melting temperature (HeLa Kyoto [2]; cell cycle stage: mitosis)	solubility change mitosis (log2) (HeLa Kyoto [3])	thermal stability score (HeLa Kyoto [4]; [5])	thermal stability score (HeLa Kyoto [4]; cell cycle stage: mitosis)
MADDAGLETPLCSEQFGSGEARGCRAAADGSLQWEVGGWRWWGLSRAFTVKPEGRDAGEVGASGAPSPPLSGLQAVFLPQGFPDSVSPDYLPYQLWDSVQAFASSLSGSLATQAVLLGIGVGNAKATVSAATATWLVKDSTGMLGRIVFAWWKGSKLDCNAKQWRLFADILNDVAMFLEIMAPVYPICFTMTVSTSNLAKCIVSVAGGATRAALTVHQARRNNMADVSAKDSSQETLVNLAGLLVSLLMLPLVSGCPGFSLGCFFFLTALHIYANYRAVRALVMETLNEGRLRLVLKHYLQRGEVLDPTAANRMEPLWTGFWPAPSLSLGVPLHRLVSSVFELQQLVEGHQESYLLCWDQSQNQVQVVLNQKAGPKTILRAATHGLMLGALQGDGPLPAELEELRNRVRAGPKKESWVVVKETHEVLDMLFPKFLKGLQDAGWKTEKHQLEVDEWRATWLLSPEKKVL [C16ORF58]	-0.224	53.7 °C	53.8 °C	-0.031	-0.365	0.0232
MGPRKKSVKTCIMNNEIPEEMTADETKDYMNQLSHEVLCHIFRYLPLQDIMCMECLSRKLKEAVTLYLRVVRVVDLCAGRWWEYMPSGFTDASFLTLLKKMPDVEQLYGLHPRYLERRRVRGHEAFSIPGVLEALQACPNLVGVETSHLELVESIWTYMPHVHILGKFRNRNGAFPIPPENKLKIPIGAKIQTLHLVGVNVPEIPCIPMLRHLYMKWVRLTKPQPFKDFLCISLRTFVMRNCAGPTNSLKYVPLVTGLASARNLEHLEMVRVPFLGGLIQHVVEDSWRSGGFRNLHTIVLGACKNALEVDLGYLIITAARRLHEVRIQPSLTKDGVFSALKMAELEFPQFETLHLGYVDEFLLQSRMANADLVKYGLADVVENPGIITDIGMKAVNEVFSCIKYLAIYNCPHLHNPYNWISDHSRWTRLVDINLVRCHALKLDSFGQFIELLPSLEFISLDQMFREPPKGCARVGLSAGTGIGVSSALVSNQNSNNDDNNAQNNNANIHDNNHHHPDDSDEENDFRQDLQPGEQQFAADALNEMEDIVQEDGEVVAESGNNTPAHSQAIIPVDVDEEQAGPSGLQRVVKPTSITVHDSESDDEEDSLELQEVWIPKNGTRRYSEREEKTGESVQSRELSVSGKGKTPLRKRYNSHQMGQSKQFPLEESSCEKGCQVTSEQIKADMKAARDIPEKKKNKDVYPSCSSTTASTVGNSSSHNTASQSPDFVRTVNSGGSSEPSPTEVDVSRQCACSPGGSEDSEAMEEGDAESSVCPRCCCHRPQESQRRTSRCSDEERPSTSRACVVNGPDGTRSAFSFRTLPQGGSSGPAHDERTNGSGSGATGEDRRGSSQPESCDVQSNEDYPRRPLTRARSRLSHVLLVSESEVAKTKPRHAMKRKRTADKSTSTSDPVIEDDHVQVLVLKSKNLVGVTMTNCGITDLVLKDCPKMMFIHATRCRVLKHLKVENAPIVNRFDYAQCKKLNMDQVLDQILRMPPERNRIIYLRPMQQVDTLTLEQKLFSGPYPYHICIIHEFSNPPNVRNKVRIRSWMDTIANINQELIKYEFFPEATRSEEDLKKYPKYPWGREIYTLEGVVDGAPYSMISDFPWLRSLRAAEPNSFARYDFEDDEESTIYAPRRKGQLSADICMETIGEEISEMRQMKKGVFQRVVAIFIHYCDVNGEPVEDDYI [FBXO38]	-0.338	51.6 °C	51.3 °C	-0.0833	-0.768	-0.745
MAPVLSKDSADIESILALNPRTQTHATLCSTSAKKLDKKHWKRNPDKNCFNCEKLENNFDDIKHTTLGERGALREAMRCLKCADAPCQKSCPTNLDIKSFITSIANKNYYGAAKMIFSDNPLGLTCGMVCPTSDLCVGGCNLYATEEGPINIGGLQQFATEVFKAMSIPQIRNPSLPPPEKMSEAYSAKIALFGAGPASISCASFLARLGYSDITIFEKQEYVGGLSTSEIPQFRLPYDVVNFEIELMKDLGVKIICGKSLSVNEMTLSTLKEKGYKAAFIGIGLPEPNKDAIFQGLTQDQGFYTSKDFLPLVAKGSKAGMCACHSPLPSIRGVVIVLGAGDTAFDCATSALRCGARRVFIVFRKGFVNIRAVPEEMELAKEEKCEFLPFLSPRKVIVKGGRIVAMQFVRTEQDETGKWNEDEDQMVHLKADVVISAFGSVLSDPKVKEALSPIKFNRWGLPEVDPETMQTSEAWVFAGGDVVGLANTTVESVNDGKQASWYIHKYVQSQYGASVSAKPELPLFYTPIDLVDISVEMAGLKFINPFGLASATPATSTSMIRRAFEAGWGFALTKTFSLDKDIVTNVSPRIIRGTTSGPMYGPGQSSFLNIELISEKTAAYWCQSVTELKADFPDNIVIASIMCSYNKNDWTELAKKSEDSGADALELNLSCPHGMGERGMGLACGQDPELVRNICRWVRQAVQIPFFAKLTPNVTDIVSIARAAKEGGANGVTATNTVSGLMGLKSDGTPWPAVGIAKRTTYGGVSGTAIRPIALRAVTSIARALPGFPILATGGIDSAESGLQFLHSGASVLQVCSAIQNQDFTVIEDYCTGLKALLYLKSIEELQDWDGQSPATVSHQKGKPVPRIAELMDKKLPSFGPYLEQRKKIIAENKIRLKEQNVAFSPLKRNCFIPKRPIPTIKDVIGKALQYLGTFGELSNVEQVVAMIDEEMCINCGKCYMTCNDSGYQAIQFDPETHLPTITDTCTGCTLCLSVCPIVDCIKMVSRTTPYEPKRGVPLSVNPVC [DPYD]	-0.116	54 °C	53.5 °C	0.02	-1.59	-1.63
MDPLGAPSQFVDVDTLPSWGDSCQDELNSSDTTAEIFQEDTVRSPFLYNKDVNGKVVLWKGDVALLNCTAIVNTSNESLTDKNPVSESIFMLAGPDLKEDLQKLKGCRTGEAKLTKGFNLAARFIIHTVGPKYKSRYRTAAESSLYSCYRNVLQLAKEQSMSSVGFCVINSAKRGYPLEDATHIALRTVRRFLEIHGETIEKVVFAVSDLEEGTYQKLLPLYFPRSLKEENRSLPYLPADIGNAEGEPVVPERQIRISEKPGAPEDNQEEEDEGLGVDLSFIGSHAFARMEGDIDKQRKLILQGQLSEAALQKQHQRNYNRWLCQARSEDLSDIASLKALYQTGVDNCGRTVMVVVGRNIPVTLIDMDKALLYFIHVMDHIAVKEYVLVYFHTLTSEYNHLDSDFLKKLYDVVDVKYKRNLKAVYFVHPTFRSKVSTWFFTTFSVSGLKDKIHHVDSLHQLFSAISPEQIDFPPFVLEYDARENGPYYTSYPPSPDL [GDAP2]	0.111	48.2 °C	49.1 °C	-0.148	0.35	0.405
MELALRRSPVPRWLLLLPLLLGLNAGAVIDWPTEEGKEVWDYVTVRKDAYMFWWLYYATNSCKNFSELPLVMWLQGGPGGSSTGFGNFEEIGPLDSDLKPRKTTWLQAASLLFVDNPVGTGFSYVNGSGAYAKDLAMVASDMMVLLKTFFSCHKEFQTVPFYIFSESYGGKMAAGIGLELYKAIQRGTIKCNFAGVALGDSWISPVDSVLSWGPYLYSMSLLEDKGLAEVSKVAEQVLNAVNKGLYREATELWGKAEMIIEQNTDGVNFYNILTKSTPTSTMESSLEFTQSHLVCLCQRHVRHLQRDALSQLMNGPIRKKLKIIPEDQSWGGQATNVFVNMEEDFMKPVISIVDELLEAGINVTVYNGQLDLIVDTMGQEAWVRKLKWPELPKFSQLKWKALYSDPKSLETSAFVKSYKNLAFYWILKAGHMVPSDQGDMALKMMRLVTQQE [SCPEP1]	0.402	56.9 °C	55.6 °C	0.202	-2.33	-0.14
MRWGLRPRGPGAAALATARSLWGTPRLPCSPGWQGATKRLLVRSVSGASNHQPNSNSGRYRDTVLLPQTSFPMKLLGRQQPDTELEIQQKCGFSELYSWQRERKVKTEFCLHDGPPYANGDPHVGHALNKILKDIANRFHMMNGSKIHFVPGWDCHGLPIEIKVLSELGREAQNLSAMEIRKKARSFAKAAIEKQKSAFIRWGIMADWNNCYYTFDGKYEAKQLRTFYQMYDKGLVYRSYKPVFWSPSSRTALAEAELEYNPEHVSRSIYVKFPLLKPSPKLASLIDGSSPVSILVWTTQPWTIPANEAVCYMPESKYAVVKCSKSGDLYVLAADKVASVASTLETTFETISTLSGVDLENGTCSHPLIPDKASPLLPANHVTMAKGTGLVHTAPAHGMEDYGVASQHNLPMDCLVDEDGVFTDVAGPELQNKAVLEEGTDVVIKMLQTAKNLLKEEKLVHSYPYDWRTKKPVVIRASKQWFINITDIKTAAKELLKKVKFIPGSALNGMVEMMDRRPYWCISRQRVWGVPIPVFHHKTKDEYLINSQTTEHIVKLVEQHGSDIWWTLPPEQLLPKEVLSEVGGPDALEYVPGQDILDIWFDSGTSWSYVLPGPDQRADLYLEGKDQLGGWFQSSLLTSVAARKRAPYKTVIVHGFTLGEKGEKMSKSLGNVIHPDVVVNGGQDQSKEPPYGADVLRWWVADSNVFTEVAIGPSVLNAARDDISKLRNTLRFLLGNVADFNPETDSIPVNDMYVIDQYMLHLLQDLANKITELYKQYDFGKVVRLLRTFYTRELSNFYFSIIKDRLYCEKENDPKRRSCQTALVEILDVIVRSFAPILPHLAEEVFQHIPYIKEPKSVFRTGWISTSSIWKKPGLEEAVESACAMRDSFLGSIPGKNAAEYKVITVIEPGLLFEIIEMLQSEETSSTSQLNELMMASESTLLAQEPREMTADVIELKGKFLINLEGGDIREESSYKVIVMPTTKEKCPRCWKYTAESSDTLCPRCAEVVSGK [IARS2]	-0.0329	54.9 °C	54.9 °C	-0.0958	-0.383	-1.42
MEASWRQVAGGRGRSRGRATAAPSGNGVHLRGAGGGREKGSVGAVPSGTSPGGVATTAAAGSRHSPAGSQALQTTAASELMSQKKFEEIKKANQAAARKLVEEQFSSSSEEGDEDFEGKQGKILANTFITYTTQTDGDTRELERTKQYVNEAFQAGAMTCLICIASVKRNQAVWSCSGCFCIFHMPCIQKWAKDSQFLVSSVTDDDFGKKDCPWPCPKCRFEYKRSETPSRYYCYCGKVEDPPLDPWLVPHSCGQVCEREFKPPCGHKCLLLCHPGPCPPCPKMVTTTCYCKKAKPIPRRCSAKEWSCQLPCGQKLLCGQHKCENPCHAGSCQPCPRVSRQKCVCGKKVAERSCASPLWHCDQVCGKTLPCGNHTCEQVCHVGACGECPRSGKRFCPCQKSKFSLPCTEDVPTCGDSCDKVLECGIHRCSQRCHRGPCETCRQEVEKHCRCGKHTKRMPCHKPYLCETKCVKMRDCQKHQCRRKCCPGNCPPCDQNCGRTLGCRNHKCPSVCHRGSCYPCPETVDVKCNCGNTKVTVPCGRERTTRPPKCKEQCSRPPTCHHTSQEKHRCHFGSCPPCHQPCQKVLEKCGHLCPAPCHDQALIKQTGRHQPTGPWEQPSEPAFIQTALPCPPCQVPIPMECLGKHEVSPLPCHAVGPYSCKRVCGRILDCQNHTCMKECHKVTKTDGCTGKNKAGPECLHCEEGCSKSRPLGCLHPCILRCHPGECPPCVQMLRIKCHCKITSLYVECRKITTADVNEKNLLSCCKNQCPKELPCGHRCKEMCHPGECPFNCNQKVKLRCPCKRIKKELQCNKVRENQVSIECDTTCKEMKRKASEIKEAEAKAALEEEKRRQQAELEAFENRLKGRRKKNRKRDEVAVELSLWQKHKYYLISVCGVVVVVFAWYITHDVN [NFXL1]	-0.509	50.2 °C	50.5 °C	0.0441	1.02	1.56

Reference: the supplement of paper PMC5998384
